Molecular target: T1, pE3-Aβ(3–18) monomer
T1 chain: EFRHDSGYEVHHQKLV
Assay: SPR (Biacore)
Conditions: chain shown with the change

Kd: 162 nM
B1: humanized PBD-C06 (CDR-grafted IgG1:kappa version) VL:F41L (protein)
chain 1: QVQLVQSGAEVKKSGASVKVSCKASGYSFTGYTMNWVRQAPGQGLEWMGLINPYNGVTRYNQKFKGRVTLIRDTSTTTVYMELTSLTSEDTAVYYCAREAKREWDETYWGQGTLVTVSS
chain 2: DVVMTQSPLSLPVTLGQPASISCKSSQSLLYSDGKTYLNWLQQRPGQSPRRLIYLVSKLDSGVPDRFSGSGSGTDFTLKISRVEAEDVGVYYCVQGTHFPFTFGGGTKVEIK

— article PMC7040040
